Data on 13 molecules can be found in patent US20160009793A1 (BIOARCTIC NEUROSCIENCE, published 2016).

B1: A17D/R79T (antibody, human IgG1, kappa, V domains shown)
VH: EVQLVESGGGLVQPGGSLRLSCSASGFTFSSFGMHWVRQAPGKGLEWVAYISSGSSTIYYGDTVKGRFTISRDNAKNSLFLQMSSLRAEDTAVYYCAREGGYYYGRSYYTMDYWGQGTTVTVSS
VL: DVVMTQSPLSLPVTPGDPASISCRSSQSIVHSNGNTYLEWYLQKPGQSPKLLIYKVSNRFSGVPDRFSGSGSGTDFTLTISRVEAEDVGIYYCFQGSHVPPTFGPGTKLEIKR
B2: A17D/R82S (antibody, human IgG1, kappa, V domains shown)
VH: B1 VH
VL: B1 VL with T79R, R82S
B3: A17D/R79T_DI 8 (antibody, human IgG1, kappa)
heavy: not shown
light: DVVMTQSPLSLPATPGDPASISCRSSQSIVHSNGNTYLEWYLQKPGQSPKLLIYKVSNRFSGVPDRFSGSGSGTDFTLTISRVDAEDVGIYYCFQGSHVPPTFGPGTKLEIKRTVAAPSVFIFPPSDEQLKSGTASVVCLLNNFYPREAKVQWKVDNALQSGNSQESVTEQDSKDSTYSLSSTLTLSKADYEKHKVYACEVTHQGLSSPVTKSFNRGEC
notes: also called deimmunized variant 8 of A17D/R79T
B4: A17D/R79T/R82S (antibody, human IgG1, kappa, V domains shown)
VH: B1 VH
VL: B1 VL with R82S
B5: A17D/R79T_DI 2 (antibody, human IgG1, kappa)
heavy: not shown
light: B3 light with A13V, I21V
notes: also called deimmunized variant 2 of A17D/R79T
B6: A17D/R79T_DI 4 (antibody, human IgG1, kappa)
heavy: not shown
light: B3 light
notes: also called deimmunized variant 4 of A17D/R79T
B7: A17D/R79T_DI 7 (antibody, human IgG1, kappa)
heavy: not shown
light: B3 light with S81Q, D84E
notes: also called deimmunized variant 7 of A17D/R79T
B8: A17D/R79T_DI 5 (antibody, human IgG1, kappa)
heavy: not shown
light: B3 light with A13V, I21V, S81Q, D84E
notes: also called deimmunized variant 5 of A17D/R79T
B9: A17D/R79T_DI 3 (antibody, human IgG1, kappa)
heavy: not shown
light: B3 light with S81Q, D84E
notes: also called deimmunized variant 3 of A17D/R79T
B10: A17D/R79T_DI 1 (antibody, human IgG1, kappa)
heavy: not shown
light: B3 light with A13V, I21V, S81Q, D84E
notes: also called deimmunized variant 1 of A17D/R79T
B11: A17D/R79T_DI 6 (antibody, human IgG1, kappa)
heavy: not shown
light: B3 light with A13V, I21V
notes: also called deimmunized variant 6 of A17D/R79T
B12: A17D (antibody, human IgG1, kappa, V domains shown)
VH: B1 VH
VL: B1 VL with T79R
B13: BAN2401 (antibody, V domains shown)
VH: B1 VH
VL: DVVMTQSPLSLPVTPGAPASISCRSSQSIVHSNGNTYLEWYLQKPGQSPKLLIYKVSNRFSGVPDRFSGSGSGTDFTLRISRVEAEDVGIYYCFQGSHVPPTFGPGTKLEIK
notes: also called humanized version of mAb158

Changes are numbered by the printed parent chain. Names may count otherwise.

T2 sequence (P05067 672-711 limits assumed): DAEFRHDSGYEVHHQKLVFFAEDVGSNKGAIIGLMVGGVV
T1 sequence (P05067 672-713 limits assumed): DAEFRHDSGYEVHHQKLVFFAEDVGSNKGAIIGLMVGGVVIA

One assay concerns the target T1, Aβ1-42 protofibrils (UniProt P05067 672-713).
T1 construct: domain: Aβ1-42; Aβ numbering is not APP numbering; also called Aβ protofibrils; Aβ-protofibrils
Nature of the assay: inhibition ELISA: antibody pre-incubated in solution with Aβ protofibrils, then transferred to Aβ coated plates. The method, then:
(§1) The binding characteristics towards Aβ protofibrils and Aβ monomers of the antibodies of the invention compared to BAN2401 were analyzed using an inhibition ELISA in which antibodies were pre-incubated in solution with Aβ protofibrils or Aβ monomers and then transferred to Aβ coated ELISA plates, as described in Tucker et. al. J Alzheimers Dis. 2015; 43(2):575-88. doi: 10.3233/JAD-140741. PubMed PMID: 25096615, and references cited therein.
For the molecule B1, the binding result is on record as “binds”.
Take B2: the binding result was “binds”.
For the molecule B3, the binding result was “binds”.
Still for that read-out and setting: as for B4, the entry is “binds”.
As for B5, the binding result was “binds”.
Turning to B6, the binding result is on record as “binds”.
Same read-out and setting: as for B7, the entry is “binds”; as for B8, “binds”; as for B9, “binds”.
In the case of B10, the binding result was “binds”.
Consider B11, for which the binding result is reported as “binds”.
Consider B12, for which the binding result is “binds”.

A further assay addresses T1, Aβ1-42 protofibrils. As to the kind of experiment: inhibition ELISA: antibody pre-incubated in solution with Aβ protofibrils, then transferred to Aβ coated plates; BAN2401 is the reference. As for the experimental part: as §1
Regarding B13, the binding result was “binds”.

Another assay has as its target T2, Aβ1-40 monomers (UniProt P05067 672-711).
T2 construct: domain: Aβ1-40; Aβ numbering is not APP numbering; also called Aβ monomers; Aβ monomer
Nature of the assay: inhibition ELISA: antibody pre-incubated in solution with Aβ monomers, then transferred to Aβ coated plates. As for the experimental part: as §1
In the case of B1, the binding result was “binds”.
Same read-out and setting: the result for B2 reads “binds”.
Take B3: the binding result is “binds”.
Still for that read-out and setting: the result for B4 reads “binds”; that for B5, “binds”; that for B6, “binds”.
On the same count and under the same terms, as for B7, the entry is “binds”; as for B8, “binds”.
As for B9, the binding result was “binds”.
Turning to B10, the binding result is recorded as “binds”.
Same read-out and setting: as for B11, the entry is “binds”; as for B12, “binds”.
